This note sets out measurements from patent US20250051266A1, “Novel GLV-Phenolamide: Biosynthesis and Function in Protecting Plants from Herbivore Attack” (Max-Planck-Gesellschaft zur Förderung der Wissenschaften …, priority 2021, published 2025).

Holding throughout (format): biochemical, Nicotiana attenuata
Holding throughout (settings): other substrate fixed ((Z)-3-hexenal 1 mM or caffeoylputrescine 80 μM)

Substrate in data set [1]: CC/C=C\CC=O
As to the kind of experiment: Steady-state Michaelis-Menten kinetics of NaPPO2 (with or without NaBBL2).
From the text: (§1) FIG. 50 Michaelis-Menten kinetics of PPO2 and BBL2 with different concentrations of caffeoylputrescine and (Z)-3-hexenal. Steady-state kinetics of caffeoylputrescine or (Z)-3-hexenal conversion to CPH catalyzed by PPO2 purified from E. coli B121 expressing PPO2. Error bars represent the standard error of the means (SEM) from three independent measurements of reaction velocity. The kinetic constants, apparent Km and Vmax (Table 2), and their standard errors were inferred using nonlinear Michaelis-Menten curve-fitting in GraphPad Prism (v. 9.0d). Substrate concentration for (Z)-3-hexenal was 1 mM.
as §1, with “52” for “50”, “mM.Substrate concentration for caffeoylputrescine was 80 μM.” for “mM.”
(§2) Steady-state kinetics of NaPPO1, NaPPo2 and NaBBL2 enzymes: For steady-state kinetic analysis, the ability to oxidize N-caffeoylputrescine was tested in 84 mM acetate buffer (pH 4.8) at 22° C. water bath, containing 1 mM (Z)-3-hexnal, 1 mM FAD, 32 μg NaPPO1/NaPPO2, 30 μg/90 μg NaBBL2 (total volume 100 μL); assays lacking NaBBL2 enzymes served as negative controls.
(§3) The following eight N-caffeoylputrescine final concentrations were each tested at three independent experiments: 10, 20, 40, 60, 80, 120, 140, and 160 μM. Likewise, the ability to catalyze (Z)-3-hexnal was tested in 84 mM acetate buffer (pH 4.8) at 22° C., containing 80 μM N-caffeoylputrescine, 1 mM FAD, 32 μg NaPPO1/NaPPO2, 30 μg/90 μg NaBBL2 (total volume 100 μL); again, assays lacking NaBBL2 enzymes served as negative controls. The following eight (Z)-3-hexnal final concentrations were each tested in three independent experiments: 500, 600, 700, 800, 1000, 1200, 1600, and 2000 μM. The reactions were initiated by the addition of the corresponding recombinant enzymes and the components were mixed by briefly vortexing, and immediately returned to the 22° C. water bath for incubation. After 20 minutes, all the reactions were briefly vortexed, and 100 μL aliquot of each reaction was transferred to a cold Eppendorf tube (−20° C.) containing 100 μL of MeOH (with 600 ng/mL testosterone as an internal standard) to terminate enzyme activity. Samples were centrifuged at 16,000g, 4° C. for 30 min, and 150 μL supernatants were transferred into to 2 mL glass vials for LC/MS (1 μL injection volume) analysis under the same method as described previously. Standard curves for caffeoylputrescine using authentic standards (with 600 ng/mL testosterone as an internal standard) (FIG. 34) were used to calculate the concentrations of substrate and product in each assay sample. The kinetic constants for caffeoylputrescine and (Z)-3-hexnal, apparent Km and Vmax, were inferred using a nonlinear regression in GraphPad Prism 9 (FIG. 34).

Substrate in data set [2]: NCCCCNC(=O)/C=C/c1ccc(O)c(O)c1
The description is as above.
From the text: as §1
as §1, with “52” for “50”, “mM.Substrate concentration for caffeoylputrescine was 80 μM.” for “mM.”
as §2, §3

Substrate in data set [3]: CC/C=C\CC=O
As to the kind of experiment: Steady-state Michaelis-Menten kinetics of NaPPO1 (with or without NaBBL2).
From the text: as §1, with “49” for “50”, “PPO1” for “PPO2”, “PPO1.” for “PPO2.”
(§4) FIG. 51 Michaelis-Menten kinetics of PPO1 and BBL2 with different concentrations of caffeoylputrescine and (Z)-3-hexenal. Steady-state kinetics of caffeoylputrescine or (Z)-3-hexenal conversion to CPH catalyzed by PPO1 purified from E. coli B121 expressing PPO1. Error bars represent the standard error of the means (SEM) from three independent measurements of reaction velocity. The kinetic constants, apparent Km and Vmax (see Table 2), and their standard errors were inferred using nonlinear Michaelis-Menten curve-fitting in GraphPad Prism (v. 9.0d). Substrate concentration for caffeoylputrescine was 80 μM.
as §2, §3

Substrate in data set [4]: NCCCCNC(=O)/C=C/c1ccc(O)c(O)c1
The description is as above.
From the text: as §1, with “49” for “50”, “PPO1” for “PPO2”, “PPO1.” for “PPO2.”
as §4, §2, §3

Setting [5] is: other: PPO2 + BBL2 (30 μg), pH 4.8, 22.0 °C.
The mark [6] stands for this setting: other: PPO2 + BBL2 (90 μg), pH 4.8, 22.0 °C.
[7] abbreviates: other: PPO2 alone, pH 4.8, 22 °C.
[8] abbreviates: other: PPO1 + BBL2 (30 μg), pH 4.8, 22.0 °C.
Setting [9] is: other: PPO1 + BBL2 (90 μg), pH 4.8, 22.0 °C.
Where [10] appears, read: other: PPO1 alone, pH 4.8, 22 °C.

B1: NaPPO2 (Nicotiana attenuata) (protein)
chain: MASSSSSTLPLCASKTPSSSFTNTNSSFFAKPSQLFLHGKRNQNFKFSCNANSGEHDKNLDAVDRRNVLLGLGGLYGAANLAPLATAAPIPPPDLKSCSKAHINDQEEVSYSCCPPIPSDMDSVPYYKFPSMPKLRIRPAAHAADEEYIAKYQLATSRMRELDKDPFDPLGFKQQANIHCAYCNGAYKIGGKELQVHFSWLFFPFHRWYLYFYERILGSLINDPTFGLPYWNWDHPKGMRIPPMFDREGSSLYDARRNQSHRNGTIIDLGYFGTEVQTTQLQQMTNNLTIMYRQMITNAPCPLLFFGQPYPLGTDPSPGMGTIENIPHTPVHIWVGSGPNENNVQHGEDMGNFYSAGLDPLFYSHHANVDRMWSEWKALGGKRRDLTHKDWLNSEFFFYDENRNPFRVKVRDCLDSKKMGFDYAPMPTPWRNFKPIRKSNAGKVNLSSVPPASRVFPLSKLDRAISFSIDRPSSSRTQQEKNEQEEMLTFNNIKYDDSKYIRFDVFLNVDKTVNADELDKAEYAGSYTSLPHVHGDNASHVTSVTFQLAITELLEDIGLEDEDTIAVTVVPKTGGEEISIEGVEIKLVDC
By Km is commonly meant the substrate concentration at which the rate is half of its maximum. By Vmax is commonly meant the rate approached at saturating substrate. Consider B1, for which the Km in data set [1] (setting [5]) turned out to be 662.39 ± 360.69 µM; in data set [1] (setting [6]) it was 643.31 ± 217.25 µM; in data set [1] (setting [7]), 673.35 ± 393.28 µM; in data set [2] (setting [5]) it was 206.18 ± 49.95 µM; in data set [2] (setting [6]), 207.19 ± 78.07 µM; in data set [2] (setting [7]), 204.35 ± 51.37 µM. For the same protein, the Vmax in data set [1] (setting [5]) turned out to be 0.021 ± 0.004 µM/mg/min; in data set [1] (setting [6]), 0.024 ± 0.003 µM/mg/min; in data set [1] (setting [7]), 0.023 ± 0.005 µM/mg/min; in data set [2] (setting [5]), 0.63 ± 0.09 µM/mg/min; in data set [2] (setting [6]), 0.67 ± 0.17 µM/mg/min; in data set [2] (setting [7]), 0.64 ± 0.10 µM/mg/min.

B2: NaPPO1 (Nicotiana attenuata) (protein)
chain: MASSSTLPLCTTKTPFSSSTNSFFFAKPSHLFLNGKRNQSFKVSCTGEHDGNQLDAIKEGAVERRNVLLGLGGLYGAANLAPLASAAPVPPPDLKSCGPATITDGPTVSYSCCPPTPDDMDSVPYYKIPRMSKLRKRPAAQDVSEEYIAKYQLATSKMRELDKDPFDPLGFKQQANIHCAYCNDAYTMGDKKLQVHQSWLFFPFHRWYLYFYERILGSLIDDPTFALPYWNWDHPSGMRLPAMFDVEGSSLYDARRNPNVRNGTIIDLGFFGNEVKTNEIQMITNNLILMYRQMITNAPSPLLFFGEPYRFGSKPNPGQGTIENIPHTPVHIWTGTVRDTDLGNGVKSYGEDMGNFYSAGLDPVFYSHHANVDRMWNEWKALGGKRRDLTDKDWLNSEFFFYDENRDPWRVKVRDCLDSKKMGYDYEPKATPWRNFKPGKKTTPGKVNLRSVKPASKVFPLSNLDRAICFSIERPATSRSQQEKDEFEEVLTFKNLKYDDSRYIKFDVFVNADKTVNADDIDKTEYAGSYTSLPHVHGPNNATHVVEVEEFKLAITELLEDCGLEDDDIIAVTVVPKTGGEVVSIDCVLIELKAFY
Take B2: the Km in data set [3] (setting [8]) came out at 870.67 ± 381.05 µM; in data set [3] (setting [9]) it was 870.67 ± 381.05 µM; in data set [3] (setting [10]), 853.22 ± 257.87 µM; in data set [4] (setting [8]), 86.09 ± 15.34 µM; in data set [4] (setting [9]) it was 95.52 ± 28.20 µM; in data set [4] (setting [10]), 67.30 ± 10.59 µM. The Vmax in data set [3] (setting [8]) came out at 0.10 ± 0.02 µM/mg/min; in data set [3] (setting [9]) it was 0.09 ± 0.02 µM/mg/min; in data set [3] (setting [10]) it was 0.09 ± 0.01 µM/mg/min; in data set [4] (setting [8]), 0.25 ± 0.02 µM/mg/min; in data set [4] (setting [9]), 0.26 ± 0.04 µM/mg/min; in data set [4] (setting [10]), 0.21 ± 0.01 µM/mg/min.
